For 5 molecules, binding result and specific lysis of 293A11 cells pulsed with different amounts of EGFR-A11 peptide, T cells expressing TCR6 construct results are on record in patent US20240009240A1 (published 2024).

Experiment [1] addresses T1, EGFR L858R peptide on HLA-A*11:01 (human).
T1 peptide: KITDFGRAK
The experiment is described as follows: multimer staining.

Experiment [2] has as its target T1, EGFR L858R peptide on HLA-A*11:01. Put plainly: killing.
Experiment [3] addresses … (SEQ ID NO:71) presented on HLA-A*1101 on HLA-A*1101-transduced 293 target cells (human). The experiment is described as follows: cell-based or functional assay.

B1: EGFRA11 TCRA11-7-8 (TCR, V domains shown)
Valpha: RKEVEQDPGPFNVPEGATVAFNCTYSNSASQSFFWYRQDCRKEPKLLMSVYSSGNEDGRFTAQLNRASQYISLLIRDSKLSDSATYLCVVIGGGADGLTFGKGTHLIIQP
Vbeta: GVIQSPRHEVTEMGQEVTLRCKPISGHDYLFWYRQTMMRGLELLIYFNNNVPIDDSGMPEDRFSAKMPNASFSTLKIQPSEPRDSAVYFCASRNGPEAFFGQGTRLTVV
As for B1, the binding result in experiment [1] is recorded as “recognises”.

B2: EGFRA11 TCRA11-7-12 (TCR, V domains shown)
Valpha: RKEVEQDPGPFNVPEGATVAFNCTYSNSASQSFFWYRQDCRKEPKLLMSVYSSGNEDGRFTAQLNRASQYISLLIRDSKLSDSATYLCVVIGGGADGLTFGKGTHLIIQP
Vbeta: GVTQSPTHLIKTRGQQVTLRCSSQSGHNTVSWYQQALGQGPQFIFQYYREEENGRGNFPPRFSGLQFPNYSSELNVNALELDDSALYLCASSVGGDTEAFFGQGTRLTVV
In the case of B2, in experiment [1], the binding result is “recognises”.

B3: EGFRA11 TCRA11-7-18 (TCR, V domains shown)
Valpha: RKEVEQDPGPFNVPEGATVAFNCTYSNSASQSFFWYRQDCRKEPKLLMSVYSSGNEDGRFTAQLNRASQYISLLIRDSKLSDSATYLCVVIGGGADGLTFGKGTHLIIQP
Vbeta: EPEVTQTPSHQVTQMGQEVILRCVPISNHLYFYWYRQILGQKVEFLVSFYNNEISEKSEIFDDQFSVERPDGSNFTLKIRSTKLEDSAMYFCASSGQGDLLYGYTFGSGTRLTVV
On to B3, for which the binding result in experiment [1] is “recognises”.

B4: EGFRA11 TCRA11-6 (TCR, V domains shown)
Valpha: QKITQTQPGMFVQEKEAVTLDCTYDTSDQSYGLFWYKQPSSGEMIFLIYQGSYDEQNATEGRYSLNFQKARKSANLVISASQLGDSAMYFCAMNTGFQKLVFGTGTRLLVSP
Vbeta: DAGVIQSPRHEVTEMGQEVTLRCKPISGHDYLFWYRQTMMRGLELLIYFNNNVPIDDSGMPEDRFSAKMPNASFSTLKIQPSEPRDSAVYFCASRNGPEAFFGQGTRLTVV
As for B4, the binding result in experiment [2] is “recognises”.

B5: #1. EGFRA11 TCRA11-6; TRAV14DV4*02 J8*01/TRBV12-4*01 C1 J1-1*01 (TCR)
TCR alpha: QKITQTQPGMFVQEKEAVTLDCTYDTSDQSYGLFWYKQPSSGEMIFLIYQGSYDEQNATEGRYSLNFQKARKSANLVISASQLGDSAMYFCAMNTGFQKLVFGTGTRLLVSPNIQNPDPAVYQLRDSKSSDKSVCLFTDFDSQTNVSQSKDSDVYITDNAVLDMRSMDFKSNSAVAWSNKSDFACANAFNNSIIPEDTFFPSPESSCDVKLVEKSFETDTNLNFQNLSVIGFRILLLKVAGFNLLMTLRLWSSRAKRSGSGATNFSLLKQAGDVEENPGP
TCR beta: GVIQSPRHEVTEMGQEVTLRCKPISGHDYLFWYRQTMMRGLELLIYFNNNVPIDDSGMPEDRFSAKMPNASFSTLKIQPSEPRDSAVYFCASRNGPEAFFGQGTRLTVVEDLNKVFPPEVAVFEPSEAEISHTQKATLVCLATGFFPDHVELSWWVNGKEVHSGVCTDPQPLKEQPALNDSRYCLSSRLRVSATFWQNPRNHFRCQVQFYGLSENDEWTQDRAKPVTQIVSAEAWGRADCGFTSVSYQQGVLSATILYEILLGKATLYAVLVSALVLMAMVKRKDF
Consider B5, for which, in experiment [3], the specific lysis of 293A11 cells pulsed with different amounts of EGFR-A11 peptide, T cells expressing TCR6 construct at a 20:1 ratio (Cr51 release) was determined as 20 ng/mL.
